Measurements from patent publication US12084513 (dated 2024).

T1: human C1s (human)
T1 chain: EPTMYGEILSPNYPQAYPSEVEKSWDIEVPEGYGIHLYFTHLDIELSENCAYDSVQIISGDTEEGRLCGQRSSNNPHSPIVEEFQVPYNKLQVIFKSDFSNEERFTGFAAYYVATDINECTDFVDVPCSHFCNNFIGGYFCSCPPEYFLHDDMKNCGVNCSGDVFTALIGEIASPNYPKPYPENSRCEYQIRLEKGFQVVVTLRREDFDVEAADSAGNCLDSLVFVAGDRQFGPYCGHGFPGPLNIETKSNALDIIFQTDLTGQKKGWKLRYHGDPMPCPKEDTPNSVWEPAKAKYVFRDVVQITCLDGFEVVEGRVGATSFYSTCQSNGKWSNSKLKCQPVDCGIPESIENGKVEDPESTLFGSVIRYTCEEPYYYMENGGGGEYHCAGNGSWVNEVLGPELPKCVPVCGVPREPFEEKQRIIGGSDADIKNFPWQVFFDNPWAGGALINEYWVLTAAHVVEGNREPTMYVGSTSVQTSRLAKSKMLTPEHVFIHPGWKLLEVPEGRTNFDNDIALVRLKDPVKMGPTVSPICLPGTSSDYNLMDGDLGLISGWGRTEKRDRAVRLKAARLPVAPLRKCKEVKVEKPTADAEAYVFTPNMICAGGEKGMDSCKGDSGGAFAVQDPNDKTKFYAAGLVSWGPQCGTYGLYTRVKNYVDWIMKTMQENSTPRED


Legend:
human C1s [1] = target: T1, human C1s; assay: SPR pH 5.8 37C
human C1s [2] = target: T1, human C1s; assay: SPR pH 5.8 37C
human C1s [3] = target: T1, human C1s; assay: SPR pH 7.4 37C
human C1s [4] = target: T1, human C1s; assay: SPR pH 7.4 37C
human C1s [5] = target: T1, human C1s; assay: SPR pH 7.4 37C
human C1s [6] = target: T1, human C1s; assay: SPR pH 5.8 low Ca 37C
human C1s [7] = target: T1, human C1s; assay: SPR pH 5.8 37C, low response
human C1s [8] = target: T1, human C1s; assay: SPR pH 7.4 37C, low response
human C1s [9] = target: T1, human C1s; assay: SPR pH 5.8 low Ca 37C, low response
human C1s [10] = target: T1, human C1s; assay: SPR pH 5.8 37C
human C1s [11] = target: T1, human C1s; assay: SPR pH 7.4 37C
human C1s [12] = target: T1, human C1s; assay: SPR pH 5.8 low Ca 37C, low response
human C1s [13] = target: T1, human C1s; assay: SPR pH 7.4 37C
human C1s [14] = target: T1, human C1s; assay: SPR pH 5.8 37C
human C1s [15] = target: T1, human C1s; assay: SPR pH 5.8 37C, low response

Binder | Kd (human C1s [1]) | Kd (human C1s [2]) | Kd (human C1s [4]) | Kd (human C1s [5]) | Kd (human C1s [6]) | Kd (human C1s [9]) | other results
IPN009VH2/IPN009VK3 (antibody, V domains shown) VH: EVMLVESGGGLVKPGGSLRLSCAASGFTFSNYAMSWVRQAPGKGLEWVATISSGGSHTYYLDSVKGRFTISRDNSKDTLYLQMNSLRAEDTALYYCARLFTGYAMDYWGQGTLVTVSS VL: QIVLTQSPATLSLSPGERATLSCTASSSVSSSYLHWYQQKPGKAPKLWIYSTSNLASGVPSRFSGSGSGTDYTLTISSLQPEDFATYYCHQYYRLPPITFGQGTKLEIK | 0.164 nM | 0.449 nM | 1.19 nM | 0.824 nM | 3.37 nM | – | Kd (human C1s [3]): 1.24 nM
IPN009VH2/IPN93L0021 (antibody, V domains shown) VH: EVMLVESGGGLVKPGGSLRLSCAASGFTFSNYAMSWVRQAPGKGLEWVATISSGGSHTYYLDSVKGRFTISRDNSKDTLYLQMNSLRAEDTALYYCARLFTGYAMDYWGQGTLVTVSS VL: QIVLTQSPATLSLSPGERATLSCTASSSVSSSYLHWYQQKPGKAPKLWIYSTSNLASGVPSRFSGSGSGTDYTLTISSLQPEDFATYYCHQHYRLPPITFGQGTKLEIK | 3.21 nM | 4.34 nM | 2.92 nM | 2.68 nM | 9.54 nM | – | –
IPN009VH2/IPN93L0031 (antibody, V domains shown) VH: EVMLVESGGGLVKPGGSLRLSCAASGFTFSNYAMSWVRQAPGKGLEWVATISSGGSHTYYLDSVKGRFTISRDNSKDTLYLQMNSLRAEDTALYYCARLFTGYAMDYWGQGTLVTVSS VL: QIVLTQSPATLSLSPGERATLSCTASSSVSSSYLHWYQQKPGKAPKLWIYSTSNLASGVPSRFSGSGSGTDYTLTISSLQPEDFATYYCHQYHRHHPITFGQGTKLEIK | – | – | – | – | – | 4960 nM | Kd (human C1s [7]): 23.9 nM; Kd (human C1s [8]): 0.168 nM
IPN009VH2/IPN93L0024 (antibody, V domains shown) VH: EVMLVESGGGLVKPGGSLRLSCAASGFTFSNYAMSWVRQAPGKGLEWVATISSGGSHTYYLDSVKGRFTISRDNSKDTLYLQMNSLRAEDTALYYCARLFTGYAMDYWGQGTLVTVSS VL: QIVLTQSPATLSLSPGERATLSCTASSSVSSSYLHWYQQKPGKAPKLWIYSTSNLASGVPSRFSGSGSGTDYTLTISSLQPEDFATYYCHQYYRLHPITFGQGTKLEIK | 3.87 nM | 4.32 nM | 3.4 nM | 2.46 nM | 22.3 nM | – | –
IPN92H0012/IPN009VK3 (antibody, V domains shown) VH: EVMLVESGGGLVKPGGSLRLSCAASGFTFSNYAMSWVRQAPGKGLEWVATHSSGGSHTYYLDSVKGRFTISRDNSKDTLYLQMNSLRAEDTALYYCARLFTGYAMDYWGQGTLVTVSS VL: QIVLTQSPATLSLSPGERATLSCTASSSVSSSYLHWYQQKPGKAPKLWIYSTSNLASGVPSRFSGSGSGTDYTLTISSLQPEDFATYYCHQYYRLPPITFGQGTKLEIK | – | – | – | – | – | – | Kd (human C1s [3]): 10.5 nM
IPN92H0033/IPN009VK3 (antibody, V domains shown) VH: EVMLVESGGGLVKPGGSLRLSCAASGFTFSNYAMSWVRQAPGKGLEWVATISSGGSHTYYLDSVKGRFTISRDNSKDTLYLQMNSLRAEDTALYYCARLFTGHAMDYWGQGTLVTVSS VL: QIVLTQSPATLSLSPGERATLSCTASSSVSSSYLHWYQQKPGKAPKLWIYSTSNLASGVPSRFSGSGSGTDYTLTISSLQPEDFATYYCHQYYRLPPITFGQGTKLEIK | 0.515 nM | 0.931 nM | 1.01 nM | 0.79 nM | 9.57 nM | – | –

Second part, led by results:

Kd (human C1s [1]) | Kd (human C1s [2]) | Kd (human C1s [4]) | Kd (human C1s [5]) | Kd (human C1s [6]) | Kd (human C1s [9]) | Binder | other results
– | – | – | – | – | 13.9 nM | IPN92H0033/IPN93L0031 (antibody, V domains shown) VH: EVMLVESGGGLVKPGGSLRLSCAASGFTFSNYAMSWVRQAPGKGLEWVATISSGGSHTYYLDSVKGRFTISRDNSKDTLYLQMNSLRAEDTALYYCARLFTGHAMDYWGQGTLVTVSS VL: QIVLTQSPATLSLSPGERATLSCTASSSVSSSYLHWYQQKPGKAPKLWIYSTSNLASGVPSRFSGSGSGTDYTLTISSLQPEDFATYYCHQYHRHHPITFGQGTKLEIK | Kd (human C1s [7]): 2.59 nM; Kd (human C1s [8]): 3.59 nM
– | 40.1 nM | 0.611 nM | – | – | – | IPN92H0288/IPN93L0058 (antibody, V domains shown) VH: EVMLVESGGGLVKPGGSLRLSCAASGFTFSNYAMSWVRQAPGKGLEWVATISSGGSHTYELDSVDGRFTISRDNSKDTLYLQMNSLRAEDTALYYCARLFTKHAMDYWGQGTLVTVSS VL: QIVLTQSPATLSLSPGERATLSCTASSEVSSSYLHWYQQKPGKAPKLWIYSTSNLASGVPSRFSGSGSGTDYTLTISSLQPEDFATYYCHQYYRLHPITFGQGTKLEIK | Kd (human C1s [10]): 19.5 nM; Kd (human C1s [11]): 0.838 nM; Kd (human C1s [12]): 7.96 nM
– | 38.1 nM | 1.34 nM | – | – | – | IPN92H0307/IPN93L0058 (antibody, V domains shown) VH: EVMLVESGGGLVKPGGSLRLSCAASGFEFENYAMSWVRQAPGKGLEWVATISSGGSHTYELDSVDGRFTISRDNSKDTLYLQMNSLRAEDTALYYCARLFTKHAMDYWGQGTLVTVSS VL: QIVLTQSPATLSLSPGERATLSCTASSEVSSSYLHWYQQKPGKAPKLWIYSTSNLASGVPSRFSGSGSGTDYTLTISSLQPEDFATYYCHQYYRLHPITFGQGTKLEIK | Kd (human C1s [10]): 19.5 nM; Kd (human C1s [11]): 1.93 nM; Kd (human C1s [12]): 4.95 nM
– | 11.9 nM | 2.51 nM | – | – | 5.3 nM | IPN92H0033/IPN93L0024 (antibody, V domains shown) VH: EVMLVESGGGLVKPGGSLRLSCAASGFTFSNYAMSWVRQAPGKGLEWVATISSGGSHTYYLDSVKGRFTISRDNSKDTLYLQMNSLRAEDTALYYCARLFTGHAMDYWGQGTLVTVSS VL: QIVLTQSPATLSLSPGERATLSCTASSSVSSSYLHWYQQKPGKAPKLWIYSTSNLASGVPSRFSGSGSGTDYTLTISSLQPEDFATYYCHQYYRLHPITFGQGTKLEIK | Kd (human C1s [13]): 2.9 nM; Kd (human C1s [14]): 8.66 nM
– | – | – | – | – | 7.59 nM | IPN92H0033/IPN93L0021 (antibody, V domains shown) VH: EVMLVESGGGLVKPGGSLRLSCAASGFTFSNYAMSWVRQAPGKGLEWVATISSGGSHTYYLDSVKGRFTISRDNSKDTLYLQMNSLRAEDTALYYCARLFTGHAMDYWGQGTLVTVSS VL: QIVLTQSPATLSLSPGERATLSCTASSSVSSSYLHWYQQKPGKAPKLWIYSTSNLASGVPSRFSGSGSGTDYTLTISSLQPEDFATYYCHQHYRLPPITFGQGTKLEIK | Kd (human C1s [13]): 1.92 nM; Kd (human C1s [14]): 5.01 nM
– | 83.1 nM | 1.11 nM | – | – | – | IPN92H0288/IPN93L0211 (antibody, V domains shown) VH: EVMLVESGGGLVKPGGSLRLSCAASGFTFSNYAMSWVRQAPGKGLEWVATISSGGSHTYELDSVDGRFTISRDNSKDTLYLQMNSLRAEDTALYYCARLFTKHAMDYWGQGTLVTVSS VL: QIVLTQSPATLSLSPGERATLSCTASSEVSESYLHWYQQKPGKAPKLWIYSTSNLASGVPSRFSGSGSGTDYTLTISSLQPEDFATYYCHQYYRLHPITFGQGTKLEIK | Kd (human C1s [11]): 1.67 nM; Kd (human C1s [15]): 16.5 nM; Kd (human C1s [12]): 10.4 nM
